Data as given in the nanobody polyreactivity screen of Harvey et al. (2022).

test: yeast display, Sf9 membrane polyspecificity reagent, FACS + sequencing; frameworks hold sequencing errors
Procedure, shortened: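 In a synthetic yeast display library (Saccharomyces cerevisiae BJ5465), nanobody expression was induced with galactose for 36–48 hours. FACS gates were set low and high (top ~1%) using anti-HA fluorescence for expression and streptavidin fluorescence for binding of the Sf9 membrane reagent. Each polyreactivity label is drawn from the gate of origin.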

| Sequence | polyreactivity (PSR sort gate) |
| --- | --- |
| QLQLVESGGGLVQAGGSLRLRCAASGRIFVRYAMGWYRQEPGKERELVAAISTRGGSTYYADSVKGRFTISRDKAKNTVYLQMNSLKAEDTAVYYCASGPRPRPSDYWGQGTQVTGSS | high polyreactivity |
| QLQLVESGGGLVQAGGSLRLRCAASGRTFIRYAMGWYRPAPGKERELVAAISSRGGRTHYADSVKGRFTISRDNAKNTFYFQMNSLKPEDTAVYDCAADLNYGTVPGASYDYWGQGTQVTGSS | low polyreactivity |
| QLQLVESGGGLVQAGGSLRLSCAASGFIFSWYAMGWYRQAPGKERELVAAISWSGGSTYYADSVKGRITISRDNANNSVYLQMNSLKPEDTAVYYCADDRGWAKEYYWVQGTQVTVSS | high polyreactivity |
| QLQLVESGGGLVQAGGSLRLSCAASGFTFQYYAMGWYRQAPCKERELVAVISRSGGRTYYADSVKGRFTISRDNAKYTVYLQMYSLKPEDTAVYYCAALSQPGQRDDNQYDYWGQGTQVTVSS | high polyreactivity |
| QLQLVESGGGLVQAGGSLRLSCAASGFTFRYYAMGWYRQAPGKERELVAAITRSGTTSYADSVKGRFTISRDNAKNTVYLQMNSLKPEDTAVYYCNTRVTGNRLGYYYWGQGTQVTVSS | high polyreactivity |
| QLQLVESGGGLVQAGGSLRLSCAASGFTFVSNAMGWYRQAPGKERELVAVISSGGSTTYADSVKGRFSISPDNAKNTVYLQMNSLKPEDTAGYYCATTNSQDSYEGGDYWGQGTQVTVSS | low polyreactivity |
| QLQLVESGGGLVQAGGSLRLSCAASGFTSDVYAKVSYRQAPGKERELVAEISARGGSTYYADSVKGRFTISRDNAKNTVYLQMNSLKPEDTAVYYCAAEVYVGTIGFYADFFYYPVYYWGQGTQVTVSS | low polyreactivity |
| QLQLVESGGGLVQAGGSLRLSCAASGIIFYWNAMGWYRQAPGKEREFVASISGSGGSTYADSVKGRFTISRDNAKNTVYLQMNSLKPEDTAVYYCAADFSNVGVQHDYYWGQGTQVTVSS | high polyreactivity |
| QLQLVESGGGLVQAGGSLRLSCAASGNIFNYNAMGWYRQAPGKERELVAAISFSGGSTYYADSVKGRFTISRDNAQNTVYLQMNSLKPEDTAVYYCAKAERNYFEDWGQGTQVTVSS | high polyreactivity |
| QLQLVESGGGLVQAGGSLRLSCAASGNTFFPYTMGWYRQAPGKERELVAAITWSGVSTYYADSVKGRFTISRDNAKYTVDLQMNSLKPEDTAVYYCAAPSTGTYGSDYWGQGTQVTVSS | high polyreactivity |
| QLQLVESGGGLVQAGGSLRLSCAASGRIFKFNAMGWYRQATGKERELVARITWRGGSPYYADSVKGRFTISRDNAKNTVYLQLNSLKPEDTAVYDCATYTPWTRFYSGTEVGYWGQGTQVTVSS | high polyreactivity |
| QLQLVESGGGLVQAGGSLRLSCAASGRIFRGYAMGWYRQAPGKERELVAAISGSGGSTYYADSVKGRFTISRDNAKNSVYLQMNSLKPEDTAVYYCAAEGRNYYGSYDYWGQGTQVTVSS | low polyreactivity |
| QLQLVESGGGLVQAGGSLRLSCAASGRTFSTYAMGWYRQAPGKEIELVAAISSGGGRTYYADSVKGRFTISRDNAKNTVYLQMNSLKQEDTAVYYCAADRYFRSRRSYEYWGQGTQVTVSS | low polyreactivity |
| QLQLVESGGGLVQAGGSLRLSCAASGRTFSYNTMGWYRHAPGKERELVAAISWSGGSTYYADSVKGRFTISRDNAKNTVYLQMNSLKPEDSAVYYCNARSSGKGRSNAYYKGHGYWGQGTQVTVSS | high polyreactivity |
| QLQLVESGGGLVQAGGSLRLSCAASGSIFASNAMGWYRQAPGKERELVAAISSGGSRTYYADSVKGRFTISRDNAKNSVYLQMNSLKPEDTAVYYCNTVWFYGAKYDYWGQGTQVTVSS | high polyreactivity |
| QLQLVESGGGLVQAGGSLRLSCAASGSIFDVYTMGWYRQAPGKERELVAAINTCGGSTYYADSVKGRFTISRDNAKNTVYLQMNSLKPEDTAVYYCAASVYHYGPLYYWGQGTQVTVSS | low polyreactivity |
| QLQLVESGGGLVQAGGSLRLSCAASGSIFTWYAMGWYRQAPGKERELVAAITRGGSTYADSVKGRFTISRDNAKNTVNLQMNSLKPEDTAVYYCNAVYGVYDFNYWGQGTQVTGSS | low polyreactivity |
| QLQLVESGGGLVQAGGSLRLSCAASGSNISYYAMGWSRQAPGKERELVAAISKRGASTYYADSVKGRFTISRDKAKNTVFLQMNSLKPEDTAVYYCAAYRQGSAYDYWGQGTQVTVSS | high polyreactivity |
| QLQLVESGGGLVQAGGSLRLSCAASGSTASINAMGWYRQAPGKERELVADISTNGDSTSYADSVKGRFTISRDNAKNTVYLQMNSLKPEDTAVYYCNAVPHIYAEGTAYKYWGQGTQETVSS | low polyreactivity |
| QLQLVESGGGLVQAGGSLRLSCAASGSTFDVNAMGWYRQAPGKERELVAAISYSGGSTYYADSVKGRFTISRDNAKNTVYLQMNSLTPEDTAVYYCNAVFSRYSRLELGYWGQGTQVTVSS | high polyreactivity |

| Sequence | polyreactivity (PSR sort gate) |
| --- | --- |
| QLQLVESGGGLVQAGGSLRLSCAASGSTFGPYAMGWYRQAPGKDRELVASITRSGGDTYYADSVKGRFTISRDNAKNSVYLQMNSLKPEDTAVYYCNKASHANEFGYWGQGTQVTVSS | high polyreactivity |
| QLQLVESGGGLVQAGGSLRLSCAASGSTFPWYTMGWYRQAPGKERELVAAITWNGVSTYYADSVKWRITISRDNAKNTVYFQMNSLKPEDTAVYYCATRIKRIGGFPYYYWGQGTQVTVSS | high polyreactivity |
| QLQLVESGGGLVQAGGSLRLSCAASGSTLSDNAMGWYRQAPAKERELVASISWSGGTYYADSVKGRFTISRDNANNTVYLQMNSLKPEDTAVYYCAAYIYYNYSRQYWYDYWGQGTQVTVSS | low polyreactivity |
| QLQLVESGGGLVQAGGSLRLSCAASGSTLYWNAMGWYRQAPGKERELVAGISIGGRTNYADSVKGRFTISRDNAKNTVYLQMNSLKPEDTAVYYCNAENTYLGSRYRPYNYWGQGTQVTVSS | low polyreactivity |
| QLQLVESGGGLVQAGGSLRLSCAASGSTVAYNDMGWYRQAPGKERELVADIRSGGNTNYADSVKGRFTISRDNAKNTVYLQMNSLKTEDTAVYYCATDGYRIDVYHPDYRYDYWGQGTQVTVSS | low polyreactivity |
| QLQLVESGGGLVQAGGSLRLSCAASGYIFFKYAMGWYRQAPWKERELVASITSRGGTTYYADSVKGRFTISRDNAKNTVYLQMNSLKPEDTAVYYCAALRRSSFGYWGQGTQVTVSS | high polyreactivity |
| QLQLVESGGGLVQAGGSLRLSCAASGYIFGWYAMGWYRQAPGKERELVATIDWSGDSTYYADSVKGRFTISRDNAKNTVYLQLNSLKPEATAVYYCAVGYSYYPSDEFDYWGQGTQVTVSS | low polyreactivity |
| QLQLVESGGGLVQAGGSLRLSCAASGYTFRFNAMGWYRQAPGKEREFVAAIDFGGAGTYYADSVKGRFTISRDNAKNTVYLQMNSLKPEDTAVYYCAADGQWYYAPFRGGDYENDYWGQGTQVTVSS | low polyreactivity |
| QLQLVESGGGLVQAGGSLRLSCAASGYTIIQYAMGWYRQAPGKERELVAGITWSGGSTYADSVKGRFSISRDNAKNTVYLQMNSLKPEDTAVYYCAADDRDIYQYGTPYGSGIRYDYWGQGTQVTVSS | low polyreactivity |
| QLQLVESGGGLVQAGGSLRLSCAASRRIFDRNAMGWYRQAPGKERELVARIDPGDDTNYADSVKGRFTISRDNAKNTVSLQMNSLKPEDSAVYYCATDPDYVLYRTAYYEYDYWGLGTQVTVSS | low polyreactivity |
| QLQLVESGGGLVQAGGSLRLSSAASGFTFSIYAMGCYRQAPGKERELVAAINFGGGGTYYADSVKGRFTSSRDIAKNTVYLQMNSLKAEVTAVYDCAADYCYDYYSTEYDYWGQGTQVTVSS | low polyreactivity |
| QLQLVESGGGLVQAGGSLRLSSAASGSIFYEYTMGWYRQAPGKEREVVAVITSGGTTNYADSVKGRFTISRDNANNTDYLQMNSLKPEDTAFYYCNAVYRTSFQRGGGYWGQGTQVTVSS | high polyreactivity |
| QLQLVESGGVLVQAGGSLRLSCAASGRTFSEYLQGCYRPPPGKERELVAASTRGGGGTYYADSVKGRFTISRDNAKNTVYFQMNSLKPEDTAVYYCAAGRRGSAGYYRQFGYGYWGQGTQVTVSS | high polyreactivity |
| QLQLVESGRGLVQAGGSLRLSCAASGRTFYGYDMGWYRPAPGKERELVATISSGGSTNYADSVKGRFTISRDNAKNTVYLQMNSLKPEDTAVYYCNADSYEYPSPYRYYYLGYDYWGQGTQVTVSS | low polyreactivity |
| QLQLVESRPGLVPAGGSLRLSCAPSGSTFSYYAMGRYRQAPGKERELDAAISKSGGSTYYADSVKGRFTISRDNAINTVFLQMNSLKPYDTAFYYCSTRSRDPYSVSYRLDYWGQGTQVTVSS | low polyreactivity |
| QLQLVESVGGLVQAGGSLRLSCASSGLIFYVSAMGSYRQAPGKERELVAAITSSGASTYYADSVKGRFTISRDNAKNTVYLQMNSLKPEDTAVYYCAGRYAGGRRAYGYWGQGTQVSVSS | high polyreactivity |
| QLQLVESVGGVVQPGGSLRLSSAASGSNFRYYAIGWYRQAPGKERELVAAINWSGGSTYYADSVKGRVTISRDNAKNTVYLQMNSLKPEDTAVYYWAASWYYCRRYDYWGQGTQVTVSS | high polyreactivity |
| QQLQESGGGLVQAGGSLRLSCAASGSISGSVLMGWYRQAPGKEREFVASISLGGNTNYADSVKGRFTISRENAKNTVYLQMNCLKPEVAAVYYCAAYISLFETHPYWGQGTQVTVSS | high polyreactivity |
| QVELVESCGGLVQAGGSLRLSCAASGSTFTRNGMGWYSLAPGKEREMVAAISSGGSTNYADSVKGRFTISRDNAKNTVDFQKNSLQPEDTAVYYCAVDYRHSSSWNAGPWQMYYWGQGTQVTVSS | low polyreactivity |
| QVELVESGGGLVLAGGSLRLSCADSGRTFSYYAMGWYRQAPGKERELVAVITSSGGSTSYADSVKGRFTISRDNAKNTVYLQMNSLKPEDTAVYDCAADPLAVYWAYYLIGVYYWGQGTQVTVSS | high polyreactivity |
